The values that follow come from US20180155451A1 (published 2018).

Experiment [1] deals with T1, FcγRIa extracellular domain with C-terminal His tag (human, UniProt P12314 16-292).
T1 construct: extracellular domain; soluble analyte in Biacore; also called FcgRI; CD64
Description: SPR (Biacore), relative FcγRIa binding, GpH7-A5/GpH7-B3/GpL16-k0 (HeCon Ab) = 100.

The target in experiment [2] is T2, FcγRIIIa extracellular domain with C-terminal His tag (human, UniProt P08637 17-208).
T2 construct: extracellular domain; also called FcgRIIIa; 3a; not shown: His tag at the C terminus
T2 sequence (P08637 17-208): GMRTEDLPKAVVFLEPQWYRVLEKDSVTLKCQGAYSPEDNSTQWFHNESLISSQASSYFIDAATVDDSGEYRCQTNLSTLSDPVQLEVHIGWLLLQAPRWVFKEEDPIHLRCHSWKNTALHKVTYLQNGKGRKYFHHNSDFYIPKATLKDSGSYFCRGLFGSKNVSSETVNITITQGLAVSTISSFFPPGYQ
Description: SPR relative binding; GpH7-B3/GpL16-k0 = 100. Here is the method: Analysis of interaction between objective antibody and the FcγR was carried out using Biacore T100 (GE Healthcare). HBS-EP+ (GE Healthcare) was used as the running buffer, and the measurement temperature was set to 25° C. Chips produced by immobilizing the antigen peptide by the amine coupling method to a Series S Sencor Chip CM5 (GE Healthcare), or alternatively, chips produced by allowing preliminarily biotinylated antigen peptides to interact with and immobilize onto a Series S Sensor Chip SA (certified) (GE Healthcare) were used. Antibodies of interest were captured onto an antigen peptide-immobilized chip, and allowed to interact to each FcγR diluted with running buffer. To regenerate and repeatedly use the chip, the antibodies captured on the chip were washed off by reacting 10 mM glycine-HCl, pH 1.5.
The FcγR-binding activity of each antibody was assessed primarily using as an indicator the FcγR-binding activity and dissociation constant for FcγR.

T1 sequence (P12314 16-292): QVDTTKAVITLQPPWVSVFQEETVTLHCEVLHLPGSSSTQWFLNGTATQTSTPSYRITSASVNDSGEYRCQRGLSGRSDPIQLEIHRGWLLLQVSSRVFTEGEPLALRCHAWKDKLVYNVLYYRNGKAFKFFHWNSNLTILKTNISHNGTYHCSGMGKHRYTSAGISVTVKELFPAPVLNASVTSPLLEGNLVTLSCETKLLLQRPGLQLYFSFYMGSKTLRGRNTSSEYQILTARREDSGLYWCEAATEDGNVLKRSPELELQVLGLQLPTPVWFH

B1: GpH7-A5/GpH7-B3 variant Q295_12R/GpL16-k0 (antibody, human IgG1, kappa)
heavy 1: not shown
heavy 2: not shown
light: DIVMTQSPLSLPVTPGEPASISCQASESLVHSNRNTYLHWYLQKPGQSPQLLIYKVSNRFSGVPDRFSGSGSGTDFTLKISRVEAEDVGVYYCSQNTHVPPTFGQGTKVEIERTVAAPSVFIFPPSDEQLKSGTASVVCLLNNFYPREAKVQWKVDNALQSGNSQESVTEQDSKDSTYSLSSTLTLSKADYEKHKVYACEVTHQGLSSPVTKSFNRGEC
notes: heterodimerized antibody, mutation in one H chain only; also called Q295_12R He Ab
Take B1: in experiment [1], the He/Con_1a is 100 % of control.

B2: GpH7-A5/GpH7-B3 variant K334_15Y/GpL16-k0 (antibody, human IgG1, kappa)
heavy 1: not shown
heavy 2: not shown
light: B1 light
notes: heterodimerized antibody, mutation in one H chain only; also called K334_15Y He Ab
Take B2: the He/Con_1a in experiment [1] is 105 % of control.

B3: GpH7-B3 variant A330_05P/GpL16-k0 (antibody, human IgG1, kappa)
heavy: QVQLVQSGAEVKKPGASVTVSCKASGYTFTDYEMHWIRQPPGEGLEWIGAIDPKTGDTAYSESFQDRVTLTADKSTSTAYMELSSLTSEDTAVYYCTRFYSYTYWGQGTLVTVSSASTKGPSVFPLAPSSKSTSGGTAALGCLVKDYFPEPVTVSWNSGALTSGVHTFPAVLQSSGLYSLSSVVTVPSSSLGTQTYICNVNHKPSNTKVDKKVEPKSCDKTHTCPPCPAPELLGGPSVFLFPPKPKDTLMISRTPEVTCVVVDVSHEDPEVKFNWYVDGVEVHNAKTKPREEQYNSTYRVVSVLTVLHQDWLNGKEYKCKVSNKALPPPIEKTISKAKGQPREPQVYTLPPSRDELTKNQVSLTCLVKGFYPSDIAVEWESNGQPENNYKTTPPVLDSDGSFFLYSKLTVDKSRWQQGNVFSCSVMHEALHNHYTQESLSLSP
light: B1 light
notes: also called Ho Ab A330_05P
B3: in experiment [2], the Ho/Con_3a was 56.6 % of control.

B4: GpH7-A5/GpH7-B3 variant S337_14T/GpL16-k0 (antibody, human IgG1, kappa)
heavy 1: not shown
heavy 2: not shown
light: B1 light
notes: heterodimerized antibody, mutation in one H chain only; also called S337_14T He Ab
For the molecule B4, the He/Con_1a in experiment [1] is 105 % of control.

B5: GpH7-B3 variant E333_02A/GpL16-k0 (antibody, human IgG1, kappa)
heavy: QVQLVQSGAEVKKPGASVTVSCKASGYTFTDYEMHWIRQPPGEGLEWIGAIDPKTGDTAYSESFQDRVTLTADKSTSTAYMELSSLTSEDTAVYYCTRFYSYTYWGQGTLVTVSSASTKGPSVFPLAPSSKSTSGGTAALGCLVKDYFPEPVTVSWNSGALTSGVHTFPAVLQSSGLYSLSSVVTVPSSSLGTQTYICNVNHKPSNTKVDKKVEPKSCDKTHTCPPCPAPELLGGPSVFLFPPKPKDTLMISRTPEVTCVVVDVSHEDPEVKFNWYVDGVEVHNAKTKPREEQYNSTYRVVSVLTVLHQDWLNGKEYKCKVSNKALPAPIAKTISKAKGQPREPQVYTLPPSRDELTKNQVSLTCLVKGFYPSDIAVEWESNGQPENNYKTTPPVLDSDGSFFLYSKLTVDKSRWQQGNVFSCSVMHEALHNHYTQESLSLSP
light: B1 light
notes: also called Ho Ab E333_02A
Take B5: the Ho/Con_3a in experiment [2] is 93.3 % of control.

B6: GpH7-A5/GpH7-B3 variant K334_18N/GpL16-k0 (antibody, human IgG1, kappa)
heavy 1: not shown
heavy 2: not shown
light: B1 light
notes: heterodimerized antibody, mutation in one H chain only; also called K334_18N He Ab
For B6, the He/Con_1a in experiment [1] is 105 % of control.

B7: GpH7-A5/GpH7-B3 variant K334_08L/GpL16-k0 (antibody, human IgG1, kappa)
heavy 1: not shown
heavy 2: not shown
light: B1 light
notes: heterodimerized antibody, mutation in one H chain only; also called K334_08L He Ab
Consider B7, for which the He/Con_1a in experiment [1] was 105 % of control.

B8: GpH7-A5/GpH7-B3 variant K334_09D/GpL16-k0 (antibody, human IgG1, kappa)
heavy 1: not shown
heavy 2: not shown
light: B1 light
notes: heterodimerized antibody, mutation in one H chain only; also called K334_09D He Ab
B8: the He/Con_1a in experiment [1] was 106 % of control.

B9: GpH7-A5/GpH7-B3 variant Y296_07I/GpL16-k0 (antibody, human IgG1, kappa)
heavy 1: not shown
heavy 2: not shown
light: B1 light
notes: heterodimerized antibody, mutation in one H chain only; also called Y296_07I He Ab
Consider B9, for which the He/Con_1a in experiment [1] is 104 % of control.

B10: GpH7-A5/GpH7-B3 variant Y300_07I/GpL16-k0 (antibody, human IgG1, kappa)
heavy 1: not shown
heavy 2: not shown
light: B1 light
notes: heterodimerized antibody, mutation in one H chain only; also called Y300_07I He Ab
On to B10, for which the He/Con_1a in experiment [1] is 108 % of control.

B11: GpH7-A5/GpH7-B3 variant S337_18N/GpL16-k0 (antibody, human IgG1, kappa)
heavy 1: not shown
heavy 2: not shown
light: B1 light
notes: heterodimerized antibody, mutation in one H chain only; also called S337_18N He Ab
Take B11: in experiment [1], the He/Con_1a was 105 % of control.

B12: GpH7-B3 variant E333_04F/GpL16-k0 (antibody, human IgG1, kappa)
heavy: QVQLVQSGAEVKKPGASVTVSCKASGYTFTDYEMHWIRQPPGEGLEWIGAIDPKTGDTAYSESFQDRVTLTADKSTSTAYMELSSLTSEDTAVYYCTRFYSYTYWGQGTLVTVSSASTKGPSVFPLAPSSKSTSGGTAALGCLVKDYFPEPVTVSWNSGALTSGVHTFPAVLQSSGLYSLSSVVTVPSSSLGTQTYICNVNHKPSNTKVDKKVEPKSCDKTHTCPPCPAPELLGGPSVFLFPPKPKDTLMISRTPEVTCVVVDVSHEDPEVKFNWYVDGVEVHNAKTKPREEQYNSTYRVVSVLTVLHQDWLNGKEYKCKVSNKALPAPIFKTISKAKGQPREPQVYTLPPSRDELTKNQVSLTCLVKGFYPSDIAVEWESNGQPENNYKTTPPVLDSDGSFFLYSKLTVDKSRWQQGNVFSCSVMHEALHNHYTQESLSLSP
light: B1 light
notes: also called Ho Ab E333_04F
For the molecule B12, in experiment [2], the Ho/Con_3a was 87.1 % of control.

B13: GpH7-A5/GpH7-B3 variant S324_09D/GpL16-k0 (antibody, human IgG1, kappa)
heavy 1: not shown
heavy 2: not shown
light: B1 light
notes: heterodimerized antibody, mutation in one H chain only; also called S324_09D He Ab
Regarding B13, in experiment [1], the He/Con_1a was 104 % of control.

B14: GpH7-A5/GpH7-B3 variant Y296_08L/GpL16-k0 (antibody, human IgG1, kappa)
heavy 1: not shown
heavy 2: not shown
light: B1 light
notes: heterodimerized antibody, mutation in one H chain only; also called Y296_08L He Ab
As to B14, the He/Con_1a in experiment [1] is 104 % of control.

B15: GpH7-B3 variant H268_18N/GpL16-k0 (antibody, human IgG1, kappa)
heavy: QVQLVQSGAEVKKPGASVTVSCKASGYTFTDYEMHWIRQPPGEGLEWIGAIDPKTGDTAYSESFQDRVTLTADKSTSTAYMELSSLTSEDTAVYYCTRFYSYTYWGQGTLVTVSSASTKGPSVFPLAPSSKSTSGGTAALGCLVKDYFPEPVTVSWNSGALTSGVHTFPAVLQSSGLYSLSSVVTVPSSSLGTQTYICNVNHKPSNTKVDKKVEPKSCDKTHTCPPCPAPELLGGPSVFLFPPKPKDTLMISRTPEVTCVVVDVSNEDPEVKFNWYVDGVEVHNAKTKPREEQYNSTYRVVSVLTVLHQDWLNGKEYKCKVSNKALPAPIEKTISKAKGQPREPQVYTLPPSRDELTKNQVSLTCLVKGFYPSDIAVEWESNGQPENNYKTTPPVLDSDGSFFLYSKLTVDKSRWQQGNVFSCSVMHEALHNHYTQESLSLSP
light: B1 light
notes: also called Ho Ab H268_18N
On to B15, for which, in experiment [2], the Ho/Con_3a is 90.3 % of control.

B16: GpH7-A5/GpH7-B3 variant P271_18N/GpL16-k0 (antibody, human IgG1, kappa)
heavy 1: not shown
heavy 2: not shown
light: B1 light
notes: heterodimerized antibody, mutation in one H chain only; also called P271_18N He Ab
B16: the He/Con_1a in experiment [1] was 103 % of control.

B17: GpH7-B3 variant G236_15Y/GpL16-k0 (antibody, human IgG1, kappa)
heavy: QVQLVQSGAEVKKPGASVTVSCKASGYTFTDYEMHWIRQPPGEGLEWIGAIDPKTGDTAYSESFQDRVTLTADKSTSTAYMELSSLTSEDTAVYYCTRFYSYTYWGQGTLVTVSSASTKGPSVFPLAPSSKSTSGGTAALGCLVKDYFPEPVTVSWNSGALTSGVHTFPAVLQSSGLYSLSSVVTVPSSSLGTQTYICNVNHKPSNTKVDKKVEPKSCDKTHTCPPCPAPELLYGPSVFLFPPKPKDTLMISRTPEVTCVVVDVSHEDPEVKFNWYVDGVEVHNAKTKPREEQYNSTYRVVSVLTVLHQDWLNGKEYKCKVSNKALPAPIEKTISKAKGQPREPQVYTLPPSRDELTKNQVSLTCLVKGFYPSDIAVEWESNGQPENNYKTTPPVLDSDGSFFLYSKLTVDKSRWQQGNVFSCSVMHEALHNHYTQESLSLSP
light: B1 light
notes: also called Ho Ab G236_15Y
Turning to B17, the Ho/Con_3a in experiment [2] was 41.6 % of control.

B18: GpH7-A5/GpH7-B3 variant K334_07I/GpL16-k0 (antibody, human IgG1, kappa)
heavy 1: not shown
heavy 2: not shown
light: B1 light
notes: heterodimerized antibody, mutation in one H chain only; also called K334_07I He Ab
As to B18, the He/Con_1a in experiment [1] was 104 % of control.

B19: GpH7-A5/GpH7-B3 variant P271_19Q/GpL16-k0 (antibody, human IgG1, kappa)
heavy 1: not shown
heavy 2: not shown
light: B1 light
notes: heterodimerized antibody, mutation in one H chain only; also called P271_19Q He Ab
As to B19, in experiment [1], the He/Con_1a is 103 % of control.

B20: GpH7-A5/GpH7-B3 variant S267_19Q/GpL16-k0 (antibody, human IgG1, kappa)
heavy 1: not shown
heavy 2: not shown
light: B1 light
notes: heterodimerized antibody, mutation in one H chain only; also called S267_19Q He Ab
For B20, the He/Con_1a in experiment [1] is 102 % of control.

B21: GpH7-A5/GpH7-B3 variant S267_06M/GpL16-k0 (antibody, human IgG1, kappa)
heavy 1: not shown
heavy 2: not shown
light: B1 light
notes: heterodimerized antibody, mutation in one H chain only; also called S267_06M He Ab
For B21, the He/Con_1a in experiment [1] was 106 % of control.

B22: GpH7-A5/GpH7-B3 variant K334_19Q/GpL16-k0 (antibody, human IgG1, kappa)
heavy 1: not shown
heavy 2: not shown
light: B1 light
notes: heterodimerized antibody, mutation in one H chain only; also called K334_19Q He Ab
On to B22, for which the He/Con_1a in experiment [1] is 106 % of control.

B23: GpH7-A5/GpH7-B3 variant S239_10E/GpL16-k0 (antibody, human IgG1, kappa)
heavy 1: not shown
heavy 2: not shown
light: B1 light
notes: heterodimerized antibody, mutation in one H chain only; also called S239_10E He Ab
On to B23, for which, in experiment [1], the He/Con_1a was 105 % of control.

B24: GpH7-A5/GpH7-B3 variant S267_10E/GpL16-k0 (antibody, human IgG1, kappa)
heavy 1: not shown
heavy 2: not shown
light: B1 light
notes: heterodimerized antibody, mutation in one H chain only; also called S267_10E He Ab
Turning to B24, the He/Con_1a in experiment [1] was 106 % of control.

B25: GpH7-B3 variant A330_07I/GpL16-k0 (antibody, human IgG1, kappa)
heavy: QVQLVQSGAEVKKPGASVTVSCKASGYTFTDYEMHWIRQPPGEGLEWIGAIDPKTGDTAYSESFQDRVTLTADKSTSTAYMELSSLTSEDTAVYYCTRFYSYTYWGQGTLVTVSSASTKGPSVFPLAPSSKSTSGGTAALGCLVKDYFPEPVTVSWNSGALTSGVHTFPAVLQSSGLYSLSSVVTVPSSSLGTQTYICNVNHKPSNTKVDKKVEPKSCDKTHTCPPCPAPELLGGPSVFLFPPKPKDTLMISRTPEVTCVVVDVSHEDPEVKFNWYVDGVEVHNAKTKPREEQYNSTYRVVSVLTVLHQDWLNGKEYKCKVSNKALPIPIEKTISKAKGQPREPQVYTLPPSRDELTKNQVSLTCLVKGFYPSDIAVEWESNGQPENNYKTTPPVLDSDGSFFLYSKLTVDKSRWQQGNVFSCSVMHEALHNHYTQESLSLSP
light: B1 light
notes: also called Ho Ab A330_07I
Regarding B25, in experiment [2], the Ho/Con_3a is 93 % of control.

B26: GpH7-A5/GpH7-B3 variant Y296_02A/GpL16-k0 (antibody, human IgG1, kappa)
heavy 1: not shown
heavy 2: not shown
light: B1 light
notes: heterodimerized antibody, mutation in one H chain only; also called Y296_02A He Ab
In the case of B26, in experiment [1], the He/Con_1a is 103 % of control.
